According to publication PMC10340464, “Identification of a Novel SSTR3 Full Agonist for the Treatment of Nonfunctioning Pituitary Adenomas” (Cancers, 2023):
Each block holds one molecule with its values, some of them ahead of it. Numbered stars: 1 amine (or outer) side, 2 acyl side, 3 side chain; on linkers, the order of the positions; unused ones are H or OH. Square brackets hold non-standard residues; d marks the D form. Side chains are listed from the residue outwards. Peptide text beside a SMILES is read from it. * marks the point of attachment. Ethylenediamine = C(CN[*:2])N[*:1]; Hyp = O=C(O)[C@@H]1C[C@@H](O)CN1; Phg = N[C@H](C(=O)O)c1ccccc1; CO = O=C([*:1])[*:2]; Bn = c1ccc(C*)cc1

What was measured:
[1] = species, matrix, method and reference not given; cited from earlier work
[2] = molecular target: human somatostatin receptor 5 (human) (UniProt P35346)
Chain of human somatostatin receptor 5 (human) (P35346 whole entry): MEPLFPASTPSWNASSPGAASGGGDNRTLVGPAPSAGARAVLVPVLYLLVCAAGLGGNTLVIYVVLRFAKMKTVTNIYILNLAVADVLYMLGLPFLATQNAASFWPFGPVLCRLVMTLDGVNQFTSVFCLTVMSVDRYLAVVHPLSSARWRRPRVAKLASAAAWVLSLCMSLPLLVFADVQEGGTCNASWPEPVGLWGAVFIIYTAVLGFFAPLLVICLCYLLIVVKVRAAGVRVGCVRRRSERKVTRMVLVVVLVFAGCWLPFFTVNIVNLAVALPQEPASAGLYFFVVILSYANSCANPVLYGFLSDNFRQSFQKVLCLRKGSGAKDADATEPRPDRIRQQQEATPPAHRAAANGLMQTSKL

[3] = molecular target: human somatostatin receptor 3 (human) (UniProt P32745)
Chain of human somatostatin receptor 3 (human) (P32745 whole entry): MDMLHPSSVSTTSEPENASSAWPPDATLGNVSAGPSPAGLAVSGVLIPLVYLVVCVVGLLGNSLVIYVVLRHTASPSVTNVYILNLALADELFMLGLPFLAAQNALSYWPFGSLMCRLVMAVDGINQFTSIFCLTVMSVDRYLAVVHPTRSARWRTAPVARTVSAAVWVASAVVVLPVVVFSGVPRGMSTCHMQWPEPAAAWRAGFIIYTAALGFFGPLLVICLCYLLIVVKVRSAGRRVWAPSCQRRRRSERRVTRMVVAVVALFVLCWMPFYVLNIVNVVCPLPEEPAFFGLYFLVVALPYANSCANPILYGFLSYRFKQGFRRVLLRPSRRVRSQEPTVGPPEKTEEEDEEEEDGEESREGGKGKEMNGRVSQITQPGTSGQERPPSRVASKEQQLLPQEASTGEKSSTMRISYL

[4] = molecular target: human somatostatin receptor 5 (human) (UniProt P35346); experiment: radioligand binding; competition with 3-[125I]iodotyrosyl11 somatostatin-14 on membrane extracts of CHO-K1 cells expressing the human receptor; agonist 10^-11 to 3 x 10^-7 M, n = 2; 60 min at 25 °C, filtered and counted
[5] = molecular target: human somatostatin receptor 3 (human) (UniProt P32745); experiment: as above
[6] = molecular target: human somatostatin receptor 1 (human) (UniProt P30872); experiment: as above
Chain of human somatostatin receptor 1 (human) (P30872 whole entry): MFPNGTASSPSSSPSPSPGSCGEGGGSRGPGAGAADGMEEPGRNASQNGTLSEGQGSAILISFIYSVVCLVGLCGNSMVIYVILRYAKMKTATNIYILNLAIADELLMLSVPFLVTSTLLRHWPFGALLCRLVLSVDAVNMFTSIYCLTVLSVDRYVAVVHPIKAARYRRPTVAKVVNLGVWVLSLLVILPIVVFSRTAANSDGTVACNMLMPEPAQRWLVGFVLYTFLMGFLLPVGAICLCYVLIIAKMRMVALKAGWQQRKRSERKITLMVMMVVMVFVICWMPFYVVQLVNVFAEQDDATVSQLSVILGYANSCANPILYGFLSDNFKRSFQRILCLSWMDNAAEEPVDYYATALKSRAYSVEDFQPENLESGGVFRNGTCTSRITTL

[7] = molecular target: human somatostatin receptor 2 (human) (UniProt P30874); experiment: as above
Chain of human somatostatin receptor 2 (human) (P30874 whole entry): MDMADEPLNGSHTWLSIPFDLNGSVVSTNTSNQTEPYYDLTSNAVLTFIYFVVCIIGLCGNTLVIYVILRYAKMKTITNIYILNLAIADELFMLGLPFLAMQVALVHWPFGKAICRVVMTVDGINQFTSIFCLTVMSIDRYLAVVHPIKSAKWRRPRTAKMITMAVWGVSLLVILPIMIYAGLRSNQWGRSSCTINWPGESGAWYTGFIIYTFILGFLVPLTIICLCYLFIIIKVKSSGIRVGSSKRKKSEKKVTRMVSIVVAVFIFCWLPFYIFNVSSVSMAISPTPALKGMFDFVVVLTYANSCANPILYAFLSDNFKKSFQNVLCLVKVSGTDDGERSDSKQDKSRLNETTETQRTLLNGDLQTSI

Molecule: NCCCC[C@@H]1NC(=O)[C@@H](Cc2c[nH]c3ccccc23)NC(=O)[C@H](c2ccccc2)NC(=O)[C@@H]2C[C@@H](OC(=O)NCCN)CN2C(=O)[C@H](Cc2ccccc2)NC(=O)[C@H](Cc2ccc(OCc3ccccc3)cc2)NC1=O [Pasireotide] (cyclo([Hyp]([CO-Ethylenediamine])[Phg][dW]KY(Bn)F))
- Half-time life [1]: 18 h

Molecule: C[C@@H](O)[C@@H]1NC(=O)[C@H](CCCCN)NC(=O)[C@@H](Cc2c[nH]c3ccccc23)NC(=O)[C@H](Cc2ccccc2)NC(=O)[C@@H](NC(=O)[C@H](N)Cc2ccccc2)CSSC[C@@H](C(=O)N[C@H](CO)[C@@H](C)O)NC1=O [Octreotide]
- Half-time life [1]: 2 h

- EC50 of GIRK2 channel activation via SSTR5 in transfected HEK293 cells (fluorescence membrane potential assay) [2]: 16.5 nM
- receptor internalization in U2OS cells transfected with SSTR5-tGFP, 10^-9 to 10^-5 M, 7 h; the cell gives 10^-5 M (10^-6 M) (% of activity) [2]: 43.9
- EC50 of GIRK2 channel activation via SSTR3 in transfected HEK293 cells (fluorescence membrane potential assay) [3]: 63 nM
- receptor internalization in U2OS cells transfected with SSTR3-tGFP, 10^-9 to 10^-5 M, 3 h; the cell gives 10^-5 M (10^-6 M) (% of activity) [3]: 46.3
- IC50 [4]: 0.37 nM
- IC50 [5]: 2.73 nM
- IC50 [6]: 43.9 nM
- IC50 [7]: 5.5 nM
Molecule: Pasireotide (peptide)

- receptor internalization in U2OS cells transfected with SSTR5-tGFP, 10^-9 to 10^-5 M, 7 h; the cell gives 10^-5 M (10^-6 M) (% of activity) [2]: 39.3
Molecule: Octreotide (peptide)

Molecule: C[C@H](N)C(=O)NCC(=O)N[C@H]1CSSC[C@@H](C(=O)O)NC(=O)[C@H](CO)NC(=O)[C@H]([C@@H](C)O)NC(=O)[C@H](Cc2ccccc2)NC(=O)[C@H]([C@@H](C)O)NC(=O)[C@H](CCCCN)NC(=O)[C@H](Cc2c[nH]c3ccccc23)NC(=O)[C@H](Cc2ccccc2)NC(=O)[C@H](Cc2ccccc2)NC(=O)[C@H](CC(N)=O)NC(=O)[C@H](CCCCN)NC1=O [SST-14]
- Half-time life [1]: 0.0417 h

Molecule: CSCC[C@H](NC(=O)[C@H](C)NC(=O)[C@@H]1CCCN1C(=O)[C@H](CC(N)=O)NC(=O)[C@H](CO)NC(=O)[C@H](CC(N)=O)NC(=O)[C@H](C)NC(=O)[C@@H](N)CO)C(=O)N[C@@H](C)C(=O)N1CCC[C@H]1C(=O)N[C@@H](CCCNC(=N)N)C(=O)N[C@@H](CCC(=O)O)C(=O)N[C@@H](CCCNC(=N)N)C(=O)N[C@@H](CCCCN)C(=O)N[C@@H](C)C(=O)NCC(=O)N[C@H]1CSSC[C@@H](C(=O)O)NC(=O)[C@H](CO)NC(=O)[C@H]([C@@H](C)O)NC(=O)[C@H](Cc2ccccc2)NC(=O)[C@H]([C@@H](C)O)NC(=O)[C@H](CCCCN)NC(=O)[C@H](Cc2c[nH]c3ccccc23)NC(=O)[C@H](Cc2ccccc2)NC(=O)[C@H](Cc2ccccc2)NC(=O)[C@H](CC(N)=O)NC(=O)[C@H](CCCCN)NC1=O [SST-28]
- Half-time life [1]: 0.0333 h
